Data as given in patent US20190241662A1.
Read-outs that look alike come from different tables or passages of the source.

Assays:
[1] = target: CTLA4 on activated monkey T cells; assay: flow cytometry, activated monkey CD4+ T cells, APC-labelled antibody; lower right quadrant […]
[2] = target: human PD1 on HEK293F cells (human) (UniProt Q15116); assay: flow cytometry, transfected HEK293F cells, 100 nM antibody
[3] = target: human LAG3 on HEK293F cells (human) (UniProt P18627); assay: as above
[4] = target: full-length human CTLA4 expressed on cells (human) (UniProt P16410); assay: as above
Chain of full-length human CTLA4 expressed on cells (human) (P16410 36-223): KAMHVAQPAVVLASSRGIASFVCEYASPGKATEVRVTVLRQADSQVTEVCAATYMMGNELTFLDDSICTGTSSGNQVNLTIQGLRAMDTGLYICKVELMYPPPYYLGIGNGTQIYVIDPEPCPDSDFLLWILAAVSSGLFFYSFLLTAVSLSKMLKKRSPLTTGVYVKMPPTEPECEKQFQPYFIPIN

[5] = target: CTLA4 on activated mouse T cells (mouse) (UniProt P09793); assay: flow cytometry, activated mouse CD4+ T cells, APC-labelled antibody; lower right quadrant 0.043%
Chain of CTLA4 on activated mouse T cells (mouse) (P09793 36-223 limits assumed): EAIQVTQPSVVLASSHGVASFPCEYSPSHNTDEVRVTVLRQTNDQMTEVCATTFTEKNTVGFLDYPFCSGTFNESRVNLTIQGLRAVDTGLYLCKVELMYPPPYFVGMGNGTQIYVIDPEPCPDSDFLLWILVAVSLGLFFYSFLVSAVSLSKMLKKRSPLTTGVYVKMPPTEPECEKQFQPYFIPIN

[6] = target: full-length mouse CTLA4 expressed on HEK293F cells (mouse) (UniProt P09793); assay: flow cytometry, transfected HEK293F cells, antibody concentration not printed [Cont.]
Chain of full-length mouse CTLA4 expressed on HEK293F cells (mouse) (P09793 36-223): as the sequence (P09793 36-223 limits assumed) above

[7] = target: human PD-L1 on HEK293F cells (human) (UniProt Q9NZQ7); assay: flow cytometry, transfected HEK293F cells, 100 nM antibody
Chain of human PD-L1 on HEK293F cells (human) (Q9NZQ7 19-290): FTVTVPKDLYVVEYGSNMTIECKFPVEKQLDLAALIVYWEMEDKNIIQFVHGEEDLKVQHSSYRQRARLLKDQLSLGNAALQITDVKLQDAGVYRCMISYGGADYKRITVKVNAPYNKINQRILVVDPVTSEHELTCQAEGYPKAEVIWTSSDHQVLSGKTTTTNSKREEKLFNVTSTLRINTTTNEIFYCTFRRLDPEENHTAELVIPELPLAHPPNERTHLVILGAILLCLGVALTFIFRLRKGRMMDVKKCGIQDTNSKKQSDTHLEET

[8] = target: human LAG3 on HEK293F cells (human) (UniProt P18627); assay: as above; remark: listed apart in the source
[9] = target: human Tim3 on HEK293F cells (human) (UniProt Q8TDQ0); assay: as above
Chain of human Tim3 on HEK293F cells (human) (Q8TDQ0 22-301): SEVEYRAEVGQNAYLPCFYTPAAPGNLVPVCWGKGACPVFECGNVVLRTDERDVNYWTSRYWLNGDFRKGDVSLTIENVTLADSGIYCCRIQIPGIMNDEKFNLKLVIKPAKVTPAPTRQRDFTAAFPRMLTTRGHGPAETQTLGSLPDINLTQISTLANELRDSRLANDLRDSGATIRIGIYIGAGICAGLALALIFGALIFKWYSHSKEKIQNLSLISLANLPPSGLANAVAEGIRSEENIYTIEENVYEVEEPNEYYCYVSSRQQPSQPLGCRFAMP

[10] = target: full-length human CTLA4 expressed on cells (human) (UniProt P16410); assay: as above; remark: listed apart in the source
[11] = target: full-length human CTLA4 expressed on cells (human) (UniProt P16410); assay: flow cytometry, activated human CD4+ T cells, APC-labelled antibody; lower right quadrant 0%
[12] = target: human Tim3 on HEK293F cells (human) (UniProt Q8TDQ0); assay: flow cytometry, transfected HEK293F cells, 100 nM antibody [Cont.]
[13] = target: human B7H3 on HEK293F cells (human) (UniProt Q5ZPR3); assay: as above
Chain of human B7H3 on HEK293F cells (human) (Q5ZPR3 29-534): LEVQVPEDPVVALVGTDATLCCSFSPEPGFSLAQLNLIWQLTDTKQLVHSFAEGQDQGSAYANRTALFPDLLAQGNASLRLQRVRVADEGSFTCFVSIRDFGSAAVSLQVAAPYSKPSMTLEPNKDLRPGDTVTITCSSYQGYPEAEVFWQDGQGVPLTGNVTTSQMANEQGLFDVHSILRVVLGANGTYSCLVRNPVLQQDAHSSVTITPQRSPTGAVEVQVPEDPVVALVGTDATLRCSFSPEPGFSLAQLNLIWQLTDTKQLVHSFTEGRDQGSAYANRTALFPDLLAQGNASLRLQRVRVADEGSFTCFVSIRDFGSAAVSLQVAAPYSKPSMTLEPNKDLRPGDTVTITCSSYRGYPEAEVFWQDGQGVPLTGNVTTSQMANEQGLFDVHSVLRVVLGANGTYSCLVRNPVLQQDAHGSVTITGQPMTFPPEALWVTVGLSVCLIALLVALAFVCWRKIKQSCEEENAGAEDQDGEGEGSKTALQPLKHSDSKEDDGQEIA

Chain of human LAG3 on HEK293F cells (human) (P18627 23-525): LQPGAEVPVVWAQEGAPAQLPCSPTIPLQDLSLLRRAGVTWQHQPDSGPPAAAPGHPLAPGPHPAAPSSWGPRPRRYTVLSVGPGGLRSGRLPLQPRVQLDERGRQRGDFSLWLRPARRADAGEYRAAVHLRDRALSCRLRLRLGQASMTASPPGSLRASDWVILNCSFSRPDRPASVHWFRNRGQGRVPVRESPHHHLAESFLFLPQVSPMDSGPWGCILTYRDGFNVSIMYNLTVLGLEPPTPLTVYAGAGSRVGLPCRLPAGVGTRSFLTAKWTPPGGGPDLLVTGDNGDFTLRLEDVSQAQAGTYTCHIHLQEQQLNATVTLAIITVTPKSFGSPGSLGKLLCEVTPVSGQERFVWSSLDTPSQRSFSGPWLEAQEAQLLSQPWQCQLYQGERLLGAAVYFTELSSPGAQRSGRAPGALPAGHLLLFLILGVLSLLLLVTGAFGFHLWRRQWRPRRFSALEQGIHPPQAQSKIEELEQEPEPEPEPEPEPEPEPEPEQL
Chain of CTLA4 on activated monkey T cells (chain, as listed by the source limits assumed): as the sequence (P16410 36-223) above, with S14N, I18T, L106M counted along it
Chain of human PD1 on HEK293F cells (human) (Q15116 25-288): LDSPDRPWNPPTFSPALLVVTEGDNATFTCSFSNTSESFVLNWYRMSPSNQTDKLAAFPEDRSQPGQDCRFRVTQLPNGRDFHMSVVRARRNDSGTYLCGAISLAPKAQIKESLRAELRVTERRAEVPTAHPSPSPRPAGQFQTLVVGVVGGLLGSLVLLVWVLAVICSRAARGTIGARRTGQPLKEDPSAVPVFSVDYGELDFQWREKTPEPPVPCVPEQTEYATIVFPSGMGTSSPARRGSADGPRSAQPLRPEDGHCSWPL

% of cells in upper right quadrant (APC-positive) [1]: 6.27% | % of cells in upper right quadrant (Q2) [2]: 0.99% | % of cells in upper right quadrant (Q2) [3]: 2.1% | % of cells in upper right quadrant (Q2) [4]: 1.79% | % of cells in upper right quadrant (APC-positive) [5]: 1.98% | % of cells in upper right quadrant (Q2) [6]: 0.23 | Mean [6]: 3700 | % of cells in upper right quadrant (Q2) [7]: 0.27% | Mean [7]: 36300 | % of cells in upper right quadrant (Q2) [8]: 0.17% | Mean [8]: 3550 | % of cells in upper right quadrant (Q2) [9]: 0.055% | Mean [9]: 3200 | % of cells in upper right quadrant (Q2) [10]: 0.45% | Mean [10]: 48000 | % of cells in upper right quadrant (APC-positive) [11]: 0.034% | % of cells in upper right quadrant (Q2) [12]: 1.06% | % of cells in upper right quadrant (Q2) [13]: 1.72%
Substance: isotype control antibody (human IgG1)
